Laboratory results from paper PMC3248863, “The acid-tolerant L-arabinose isomerase from the mesophilic Shewanella sp. ANA-3 is highly active at low temperatures” (Microbial Cell Factories, 2011).

Molecular target: the molecule itself
Experiment: SEC; size exclusion chromatography of the purified recombinant enzyme against protein markers of 669, 440, 232, 140 and 66 kDa; single peak of 230 kDa, compared with the 55 kDa band in reducing SDS-PAGE

B1: Shewanella sp. ANA-3 L-arabinose isomerase (enzyme, UniProt A0KWX7 1-500, looked up)
chain: MKAFKQKQVWFITGSQDLYGPKVLEQVAKNSEQIVHGFNESSAISIEVVYKPTVKSPREIHAVCQAANSDENCVGVILWMHTFSPAKMWIAGLNELSKPFMHLHTQFNAELPWSEINMNYMNTHQSAHGCREFGFIGTRMRKERKVVVGHWQSSDVQAQIDDWCRAAAGWHESQNLRIARFGDNMRQVAVTEGDKVAAQIQFGYEVHAYSLGELNEAIADIAEGDVTAQLDRYASEYQVGNELFGDEYQLDRLRKEAKIELGLTQFLTQGGFGAFTNCFENLTGMTGLPGLATQRLMANGFGYGGEGDWKTAAMVRIMKVMGQGRAGGTSFMEDYTYNFGATDQVLGAHMLEVCPSIAAAKPRLEVHRHTIGVRCDVPRLLFTGKAGPAINVSTIDLGNRFRIILNELDTVTPPQDLPNLPVASALWEPRPNLAVAAAAWIHAGGAHHSAYSQAITTDQIVDFAEMAGAELVIIDADTKIREFKNELRQNSVYYGLARGL
notes: L-arabinose isomerase (EC 5.3.1.4) of Shewanella sp; ANA-3, product of the araA gene amplified from chromosomal DNA; 500 amino-acid residues, calculated mass 55.3 kDa; Six histidines at the N-terminal end from pET-15b; also called L-AI; Shewanella sp; ANA-3 L-AI; source: E. coli BL21 (DE3) (pMR38, pET-15b), purified (ammonium sulphate precipitation, IMAC, size exclusion chromatography)
stoichiometry N: 4
